# Assay results reported in PMC9482650, “Quantitative fragmentomics allow affinity mapping of interactomes” (Nature Communications, 2022).
# T1: DFNB31_3, Q9P202
# T1 sequence (Q9P202 811-907, limits assumed, looked up): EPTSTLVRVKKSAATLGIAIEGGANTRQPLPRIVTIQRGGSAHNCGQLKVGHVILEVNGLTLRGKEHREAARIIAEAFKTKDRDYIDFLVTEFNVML
# T2: SYNJ2BP, P57105
# T2 sequence (P57105 8-110, limits assumed, looked up): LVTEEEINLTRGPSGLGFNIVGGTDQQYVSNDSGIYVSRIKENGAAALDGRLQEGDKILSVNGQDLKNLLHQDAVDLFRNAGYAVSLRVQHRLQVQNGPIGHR
# T3: PDZD7_3, Q9H5P4
# T3 sequence (Q9H5P4 857-944, limits assumed, looked up): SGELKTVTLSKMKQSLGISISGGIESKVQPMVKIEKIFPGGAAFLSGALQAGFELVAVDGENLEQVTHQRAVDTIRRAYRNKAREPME
# T4: MPDZ_12, O75970
# T4 sequence (O75970 1857-1958, limits assumed, looked up): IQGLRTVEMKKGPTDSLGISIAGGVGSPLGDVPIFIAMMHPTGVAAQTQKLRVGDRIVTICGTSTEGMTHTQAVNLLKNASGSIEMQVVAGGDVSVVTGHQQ
# T5: GRIP1_7, Q9Y3R0
# T5 sequence (Q9Y3R0 999-1096, limits assumed, looked up): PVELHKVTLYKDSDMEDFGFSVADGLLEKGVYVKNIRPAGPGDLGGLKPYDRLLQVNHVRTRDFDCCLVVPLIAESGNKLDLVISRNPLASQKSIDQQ
# T6: APBA1_1, Q02410
# T6 sequence (Q02410 651-752, limits assumed, looked up): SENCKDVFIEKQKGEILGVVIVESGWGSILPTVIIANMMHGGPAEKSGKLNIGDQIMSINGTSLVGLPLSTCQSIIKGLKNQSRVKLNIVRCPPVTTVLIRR
# T7: GRIP1_3, Q9Y3R0
# T7 sequence (Q9Y3R0 247-346, limits assumed, looked up): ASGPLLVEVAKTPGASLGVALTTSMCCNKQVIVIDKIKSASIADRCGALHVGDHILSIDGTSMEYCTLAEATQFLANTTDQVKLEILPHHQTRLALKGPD
# T8: DFNB31_2, Q9P202
# T8 sequence (Q9P202 274-371, limits assumed, looked up): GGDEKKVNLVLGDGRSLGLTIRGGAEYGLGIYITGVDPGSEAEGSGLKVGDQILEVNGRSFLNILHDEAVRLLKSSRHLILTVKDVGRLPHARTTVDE
# T9: PTPN13_1, Q12923
# T9 sequence (Q12923 1088-1188, limits assumed, looked up): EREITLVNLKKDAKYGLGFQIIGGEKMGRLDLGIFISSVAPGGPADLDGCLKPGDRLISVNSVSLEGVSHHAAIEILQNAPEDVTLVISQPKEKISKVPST
# T10: SHANK1, Q9Y566
# T10 sequence (Q9Y566 658-767, limits assumed, looked up): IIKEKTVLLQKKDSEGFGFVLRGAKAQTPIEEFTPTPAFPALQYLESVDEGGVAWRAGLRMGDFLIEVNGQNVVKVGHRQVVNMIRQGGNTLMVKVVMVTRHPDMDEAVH
# T11: MPP6, Q9NZW5
# T11 sequence (Q9NZW5 125-219, limits assumed, looked up): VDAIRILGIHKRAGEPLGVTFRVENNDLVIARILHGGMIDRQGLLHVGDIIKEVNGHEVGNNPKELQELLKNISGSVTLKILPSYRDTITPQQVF
# T12: APBA2_2, Q99767
# T12 sequence (Q99767 654-744, limits assumed, looked up): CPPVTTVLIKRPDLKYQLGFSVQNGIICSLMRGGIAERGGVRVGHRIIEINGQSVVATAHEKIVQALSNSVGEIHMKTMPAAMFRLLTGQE
# Assays:
# Assay in all cases: holdup assay
# Design in all cases: key: below the threshold = too weak to quantify, mostly under pKd 3.1 to 4
# Details in all cases: plain residues with an end cap or a label only (N-terminal biotin on a linker: ado-ado)
# MAGI1_1, Q96QZ7 = target: MAGI1_1, Q96QZ7
# NHERF2_2, Q15599 = target: NHERF2_2, Q15599
# DFNB31_3, Q9P202 = target: T1, DFNB31_3, Q9P202
# PDZRN4_1, Q6ZMN7 = target: PDZRN4_1, Q6ZMN7
# DLG4_2, P78352 = target: DLG4_2, P78352
# FRMPD2_2, Q68DX3 = target: FRMPD2_2, Q68DX3
# DLG4_3, P78352 = target: DLG4_3, P78352
# SYNJ2BP, P57105 = target: T2, SYNJ2BP, P57105
# PDZD7_3, Q9H5P4 = target: T3, PDZD7_3, Q9H5P4
# MPDZ_12, O75970 = target: T4, MPDZ_12, O75970
# GRIP2_3, Q9C0E4 = target: GRIP2_3, Q9C0E4
# GRIP1_7, Q9Y3R0 = target: T5, GRIP1_7, Q9Y3R0
# APBA1_1, Q02410 = target: T6, APBA1_1, Q02410
# GRIP1_3, Q9Y3R0 = target: T7, GRIP1_3, Q9Y3R0
# DFNB31_2, Q9P202 = target: T8, DFNB31_2, Q9P202
# TJP1_3, Q07157 = target: TJP1_3, Q07157
# CASK, O14936 = target: CASK, O14936
# GOPC, Q9HD26 = target: GOPC, Q9HD26
# PTPN13_1, Q12923 = target: T9, PTPN13_1, Q12923
# GRID2IP_1, A4D2P6 = target: GRID2IP_1, A4D2P6
# MAGI1_2, Q96QZ7 = target: MAGI1_2, Q96QZ7
# Inadl_8, Q8NI35 = target: Inadl_8, Q8NI35
# SHANK1, Q9Y566 = target: T10, SHANK1, Q9Y566
# MAST1, Q9Y2H9 = target: MAST1, Q9Y2H9
# MPP6, Q9NZW5 = target: T11, MPP6, Q9NZW5
# APBA2_2, Q99767 = target: T12, APBA2_2, Q99767
# DLG4_3, P78352, sequence (P78352 306-403): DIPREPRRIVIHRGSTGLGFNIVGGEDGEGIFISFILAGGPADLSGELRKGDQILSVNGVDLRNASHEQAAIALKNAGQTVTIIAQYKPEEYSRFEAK
# PDZRN4_1, Q6ZMN7, sequence (Q6ZMN7 213-318): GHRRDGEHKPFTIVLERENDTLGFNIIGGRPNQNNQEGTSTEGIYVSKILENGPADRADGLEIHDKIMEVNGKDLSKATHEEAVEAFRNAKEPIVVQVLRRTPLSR
# MAST1, Q9Y2H9, sequence (Q9Y2H9 962-1065): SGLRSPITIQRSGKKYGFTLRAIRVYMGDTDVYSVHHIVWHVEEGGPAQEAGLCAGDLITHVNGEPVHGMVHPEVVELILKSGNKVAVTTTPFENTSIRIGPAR
# MAGI1_2, Q96QZ7, sequence (Q96QZ7 456-580): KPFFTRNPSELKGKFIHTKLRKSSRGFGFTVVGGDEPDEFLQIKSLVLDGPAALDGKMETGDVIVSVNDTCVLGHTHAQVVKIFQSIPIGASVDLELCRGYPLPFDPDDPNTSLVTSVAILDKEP
# DLG4_2, P78352, sequence (P78352 155-259): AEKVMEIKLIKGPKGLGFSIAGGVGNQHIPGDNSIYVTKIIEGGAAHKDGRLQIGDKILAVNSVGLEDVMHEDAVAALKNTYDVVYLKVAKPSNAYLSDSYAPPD
# GRIP2_3, Q9C0E4, sequence (Q9C0E4 238-339): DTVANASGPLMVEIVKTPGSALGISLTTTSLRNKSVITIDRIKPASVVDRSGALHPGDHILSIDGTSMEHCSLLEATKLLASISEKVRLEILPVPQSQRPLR
# MAGI1_1, Q96QZ7, sequence (Q96QZ7 1-106): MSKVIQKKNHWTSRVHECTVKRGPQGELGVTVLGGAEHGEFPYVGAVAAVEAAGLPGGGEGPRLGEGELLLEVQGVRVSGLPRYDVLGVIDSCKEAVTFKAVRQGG
# Inadl_8, Q8NI35, sequence (Q8NI35 1425-1530): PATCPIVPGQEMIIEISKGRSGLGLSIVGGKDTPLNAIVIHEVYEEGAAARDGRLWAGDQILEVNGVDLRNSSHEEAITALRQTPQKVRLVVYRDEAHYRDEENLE
# GRID2IP_1, A4D2P6, sequence (A4D2P6 1-87): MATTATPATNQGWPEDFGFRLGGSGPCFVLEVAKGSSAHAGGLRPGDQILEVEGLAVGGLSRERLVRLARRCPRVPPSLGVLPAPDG
# NHERF2_2, Q15599, sequence (Q15599 142-238): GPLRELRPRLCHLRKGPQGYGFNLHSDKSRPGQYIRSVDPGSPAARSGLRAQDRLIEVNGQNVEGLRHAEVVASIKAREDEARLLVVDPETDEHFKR
# CASK, O14936, sequence (O14936 487-570): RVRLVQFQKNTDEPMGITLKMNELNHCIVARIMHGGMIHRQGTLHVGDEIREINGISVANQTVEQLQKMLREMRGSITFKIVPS
# TJP1_3, Q07157, sequence (Q07157 416-512): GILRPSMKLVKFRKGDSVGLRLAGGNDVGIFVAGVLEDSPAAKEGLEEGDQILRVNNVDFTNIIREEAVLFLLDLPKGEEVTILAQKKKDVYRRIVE
# FRMPD2_2, Q68DX3, sequence (Q68DX3 944-1038): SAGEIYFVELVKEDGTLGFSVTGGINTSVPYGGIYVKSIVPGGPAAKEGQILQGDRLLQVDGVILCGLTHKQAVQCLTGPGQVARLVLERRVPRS
Binder,"pKd (MAGI1_1, Q96QZ7)","pKd (NHERF2_2, Q15599)","pKd (DFNB31_3, Q9P202)","pKd (PDZRN4_1, Q6ZMN7)","pKd (DLG4_2, P78352)","pKd (FRMPD2_2, Q68DX3)","pKd (DLG4_3, P78352)","pKd (SYNJ2BP, P57105)","pKd (PDZD7_3, Q9H5P4)","pKd (MPDZ_12, O75970)","pKd (GRIP2_3, Q9C0E4)","pKd (GRIP1_7, Q9Y3R0)","pKd (APBA1_1, Q02410)","pKd (GRIP1_3, Q9Y3R0)","pKd (DFNB31_2, Q9P202)","pKd (TJP1_3, Q07157)","pKd (CASK, O14936)","pKd (GOPC, Q9HD26)","pKd (PTPN13_1, Q12923)","pKd (GRID2IP_1, A4D2P6)",further results
"TSSMRGMDAV [RSRC2, Q7L4I2]",below the threshold,below the threshold,below the threshold,below the threshold,below the threshold,below the threshold,below the threshold,below the threshold,below the threshold,below the threshold,below the threshold,below the threshold,below the threshold,below the threshold,below the threshold,below the threshold,below the threshold,below the threshold,below the threshold,below the threshold,"pKd (MAGI1_2, Q96QZ7): below the threshold; pKd (Inadl_8, Q8NI35): below the threshold; pKd (SHANK1, Q9Y566): below the threshold; pKd (MAST1, Q9Y2H9): below the threshold; pKd (MPP6, Q9NZW5): 3.79; pKd (APBA2_2, Q99767): below the threshold"
"DDENIRTSDV [PLEKHA2, Q9HB19]",below the threshold,below the threshold,below the threshold,below the threshold,4.38,3.82,below the threshold,4.38,4.73,below the threshold,below the threshold,below the threshold,below the threshold,below the threshold,below the threshold,below the threshold,below the threshold,3.5,below the threshold,below the threshold,"pKd (MAGI1_2, Q96QZ7): below the threshold; pKd (Inadl_8, Q8NI35): 4.94; pKd (SHANK1, Q9Y566): below the threshold; pKd (MAST1, Q9Y2H9): 4.31; pKd (MPP6, Q9NZW5): below the threshold; pKd (APBA2_2, Q99767): below the threshold"
"KKMPSIESDV [GRIN2A, Q12879]",below the threshold,below the threshold,below the threshold,below the threshold,5.29,3.78,below the threshold,4.85,below the threshold,below the threshold,below the threshold,below the threshold,below the threshold,below the threshold,below the threshold,below the threshold,below the threshold,below the threshold,below the threshold,below the threshold,"pKd (MAGI1_2, Q96QZ7): below the threshold; pKd (Inadl_8, Q8NI35): 3.76; pKd (SHANK1, Q9Y566): below the threshold; pKd (MAST1, Q9Y2H9): below the threshold; pKd (MPP6, Q9NZW5): below the threshold; pKd (APBA2_2, Q99767): below the threshold"
"TACCHSETVV [TGFA, P01135]",below the threshold,below the threshold,below the threshold,3.67,4.82,4.1,below the threshold,4.55,5.04,below the threshold,below the threshold,below the threshold,below the threshold,below the threshold,below the threshold,below the threshold,below the threshold,3.82,below the threshold,below the threshold,"pKd (MAGI1_2, Q96QZ7): 4.24; pKd (Inadl_8, Q8NI35): 3.72; pKd (SHANK1, Q9Y566): below the threshold; pKd (MAST1, Q9Y2H9): 3.9; pKd (MPP6, Q9NZW5): below the threshold; pKd (APBA2_2, Q99767): below the threshold"
"HSGYRLNDYV [CLDN14, O95500]",below the threshold,below the threshold,below the threshold,below the threshold,below the threshold,below the threshold,below the threshold,3.63,4.19,below the threshold,below the threshold,below the threshold,below the threshold,below the threshold,below the threshold,below the threshold,below the threshold,below the threshold,below the threshold,below the threshold,"pKd (MAGI1_2, Q96QZ7): below the threshold; pKd (Inadl_8, Q8NI35): 3.87; pKd (SHANK1, Q9Y566): below the threshold; pKd (MAST1, Q9Y2H9): below the threshold; pKd (MPP6, Q9NZW5): 3.9; pKd (APBA2_2, Q99767): below the threshold"
